Results reported in the supplement of paper PMC7877785.
± gives the uncertainty stated by the source.

Assay: self-splicing fitness, log relative to wild type (ln ratio); higher = more splicing; Tetrahymena group I intron in knt gene, E. coli kanamycin selection, DiMSum; sequences stand for … in CUCUCU…GGAGGGAAAAGUUAUCAGGCAUGCACCUGGUAGCUAGUCUUUAAACCAAUAGAUUGCAUCGGUUUAAAAGGCAAGACCGUCAAAUUGCGGGAAAGGGGUCAACAGCCGUUCAGUACCAAGUCUCAGGGGAAACUUUGAGAUGGCCUUGCAAAGGGUAUGGUAAUAAGCUGACGGACAUGGUCCUAACCACGCAGCCAAGUCCUAAGUCAACAGAUCUUCUGUUGAUAUGGAUGCAGUUCACAGACUAAAUGUCGGUCGGGGAAGAUGUAUUCUUCUCAUAAGAUAUAGUCGGACCUCUCCUUAAUGGGAGCUAGCGGAUGAAGUGAUGCAACACUGGAGCCGCUGGGAACUAAUUUGUAUGCGAAAGUAUAUUGAUUAGUUUUGGAGUACUCGUGGUCG
Summary of the method: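 The eight P1ex-region nucleotides of an intron in the knt kanamycin-resistance gene on pET-22b(+) were all randomised and the library put into E. coli BL21(DE3). Six replicate transformations were grown overnight at 37°C or 30°C on LB agar with or without 25 μg/mL kanamycin, together with 100 μg/mL carbenicillin, 50 μM IPTG and 0.2% rhamnose. Colonies were pooled and amplicon-sequenced on an Illumina HiSeq 2500. Fitness from DiMSum is the error-weighted combination of wild-type-normalised replicate fold changes, kanamycin over none.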

| Sequence | self-splicing fitness (ln) (30 °C) | self-splicing fitness (ln) (37 °C) |
| --- | --- | --- |
| AGCCAGCAAUAUUACGACAA | -3.47 ± 0.23 | -3.18 ± 0.2 |
| AGCCAGCAAUAUUACGAGCA | -0.932 ± 0.11 | 0.49 ± 0.14 |
| AGCCAGCAAUAUUACGAUCG | -3.74 ± 0.26 | -1.69 ± 0.15 |
| AGCCAGCAAUAUUACGAUGC | -3.79 ± 0.47 | -0.986 ± 0.2 |
| AGCCAGCAAUAUUACGAUUA | -2.22 ± 0.27 | -2.48 ± 0.28 |
| AGCCAGCAAUAUUACGCAUC | -3.75 ± 0.2 | -3.03 ± 0.17 |
| AGCCAGCAAUAUUACGCGUG | -1.91 ± 0.089 | -1.35 ± 0.092 |
| AGCCAGCAAUAUUACGCUAG | -2.97 ± 0.25 | -2.81 ± 0.25 |
| AGCCAGCAAUAUUACGGAUU | -2.85 ± 0.1 | -0.534 ± 0.093 |
| AGCCAGCAAUAUUACGGCGU | -1.61 ± 0.09 | -1.44 ± 0.12 |
| AGCCAGCAAUAUUACGGCUC | -2.52 ± 0.18 | -3.14 ± 0.31 |
| AGCCAGCAAUAUUACGGGAC | -2.67 ± 0.22 | -2.7 ± 0.27 |
| AGCCAGCAAUAUUACGGGCC | -2.77 ± 0.2 | -3.49 ± 0.46 |
| AGCCAGCAAUAUUACGUAUA | -3.4 ± 0.14 | -2.69 ± 0.17 |
| AGCCAGCAAUAUUACGUAUU | -3.72 ± 0.13 | -2.05 ± 0.12 |
| AGCCAGCAAUAUUACGUCCA | -2.69 ± 0.18 | -1.99 ± 0.2 |
| AGCCAGCAAUAUUACGUGAA | -3.14 ± 0.091 | -1.81 ± 0.1 |
| AGCCAGCAAUAUUACGUGUC | -3.17 ± 0.12 | -0.932 ± 0.083 |
| AGCCAGCAAUAUUACGUUGU | -3.58 ± 0.21 | -2.01 ± 0.15 |
| AGCGAGCAAUAUUACGACAG | – | -2.08 ± 0.4 |
| AGCGAGCAAUAUUACGACCU | -0.933 ± 0.15 | -0.654 ± 0.15 |
| AGCGAGCAAUAUUACGAUCA | -1.94 ± 0.26 | -2.08 ± 0.37 |
| AGCGAGCAAUAUUACGAUCG | -1.79 ± 0.25 | -1.63 ± 0.3 |
| AGCGAGCAAUAUUACGAUUU | -1.4 ± 0.1 | -0.548 ± 0.14 |
| AGCGAGCAAUAUUACGCCCG | – | -0.109 ± 0.42 |

| Sequence | self-splicing fitness (ln) (30 °C) | self-splicing fitness (ln) (37 °C) |
| --- | --- | --- |
| AGCGAGCAAUAUUACGCCGG | -3.03 ± 0.27 | -2.44 ± 0.5 |
| AGCGAGCAAUAUUACGGAGC | – | -2.92 ± 0.4 |
| AGCGAGCAAUAUUACGGAGG | -3.59 ± 0.47 | -1.53 ± 0.33 |
| AGCGAGCAAUAUUACGGAUA | -2.18 ± 0.39 | -2.17 ± 0.34 |
| AGCGAGCAAUAUUACGGCCA | -1.8 ± 0.099 | -1.27 ± 0.078 |
| AGCGAGCAAUAUUACGGCCC | -1.03 ± 0.28 | -0.383 ± 0.24 |
| AGCGAGCAAUAUUACGGGAC | – | -2.99 ± 0.38 |
| AGCGAGCAAUAUUACGGUUA | -1.22 ± 0.12 | -1.9 ± 0.11 |
| AGCGAGCAAUAUUACGUCAA | -2.95 ± 0.48 | -0.741 ± 0.22 |
| AGCGAGCAAUAUUACGUUAU | -3.81 ± 0.36 | -0.895 ± 0.16 |
| AGCUAGCAAUAUUACGACGG | -1.66 ± 0.23 | -1.43 ± 0.42 |
| AGCUAGCAAUAUUACGACUA | -0.935 ± 0.14 | -0.86 ± 0.13 |
| AGCUAGCAAUAUUACGCAGC | – | -0.17 ± 0.24 |
| AGCUAGCAAUAUUACGCAGG | -3.49 ± 0.22 | -3.93 ± 0.33 |
| AGCUAGCAAUAUUACGCGAG | -2.38 ± 0.22 | -3.12 ± 0.32 |
| AGCUAGCAAUAUUACGCGUC | -4.28 ± 0.36 | -2.08 ± 0.23 |
| AGCUAGCAAUAUUACGCUGU | -2.86 ± 0.2 | -3.07 ± 0.32 |
| AGCUAGCAAUAUUACGGCUC | -3.32 ± 0.37 | -3.06 ± 0.43 |
| AGCUAGCAAUAUUACGGGGU | -2.6 ± 0.16 | -2.13 ± 0.18 |
| AGCUAGCAAUAUUACGGUAC | -2.2 ± 0.26 | -1.1 ± 0.24 |
| AGCUAGCAAUAUUACGUAAC | -2.01 ± 0.15 | -0.993 ± 0.16 |
| AGCUAGCAAUAUUACGUCGA | -2.69 ± 0.2 | -1.9 ± 0.14 |
| AGCUAGCAAUAUUACGUCUC | -4.51 ± 0.39 | -2.86 ± 0.29 |
| AGCUAGCAAUAUUACGUGAG | -2.57 ± 0.12 | -2.28 ± 0.16 |
